US20050113284A1, “Drug for regenerating tissue and vessel and method therefor” (priority 2001, published 2005)

Target: T1, MERMUC bait protein (Homo sapiens, UniProt Q8N307)
T1 construct: Bait-2 corresponds to a 123 amino acid portion of the C-terminus (bait-2); expressed in transfected cells; host or cells: yeast AH109 strain (pGBKT7 bait vector)
T1 sequence (Q8N307 587-709): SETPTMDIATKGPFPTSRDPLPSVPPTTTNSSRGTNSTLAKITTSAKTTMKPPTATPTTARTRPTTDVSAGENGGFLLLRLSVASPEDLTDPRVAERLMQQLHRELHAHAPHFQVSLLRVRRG
Test: Yeast two-hybrid binding of c-Met prey deletion proteins to MERMUC bait-2
Conditions: yeast growth on SD/-Leu,-Trp,-His and SD/-Leu,-Trp,-Ade; human MERMUC bait-2
Method: The present invention was performed using the reported yeast two-hybrid system (Proc. Natl. Acad. Sci. USA., 1991, Vol. 88, p.9578-9582) based on conventional method and the experimental protocols appended to the reagents.
PCR was performed using DNA (clone No. 3-309) corresponding to the 91 amino acids (amino acids 993-1083 of SEQ ID NO: 4) of the C-terminal region of the human HGF receptor c-Met β chain that was identified in the previous Example to have the binding ability to the cytoplasmic region of human MERMUC as a template. […]
The binding activity between the c-Met prey proteins derived from the 7 DNA fragments and the MERMUC bait protein was analyzed by the yeast two-hybrid system described in Example 1. Specifically, the binding activity was evaluated based on the growth of yeast transformed with the vector on 2 kinds of yeast minimum media, i.e., (1) SD/-Leu, -Trp, -His media and (2) SD/-Leu, -Trp, -Ade media.

binding activity with MERMUC bait protein: − (no binding).
Substance: prey DNA G: c-Met prey protein, amino acids 993-1043 of SEQ ID NO: 4 (RRLLQPEYCPDPLYEVMLKCWHPKAEMRPSFSELVSRISAIFSTFIGEHYV; listed as Homo sapiens)
